We go through 3 substances from PMC2518108.

One experiment deals with human IGF-II (human). The experiment in a line: SPR; BIAcore T100, CM5 chip; human IGF-I (120 RU) or IGF-II (138 RU) amine-coupled; IGFBP-1s injected 60 s, 5 min dissociation; 25 C, HBS (10 mM HEPES, 150 mM NaCl, 3 uM EDTA, 0.05% TWEEN-20, pH 7.4), 30 uL/min; 1:1 model fitted globally, KD = kd/ka.
A further experiment has as its target human IGF-I (human) (UniProt P05019). The description is as above.

Chain of human IGFBP-1 (P08833 26-259): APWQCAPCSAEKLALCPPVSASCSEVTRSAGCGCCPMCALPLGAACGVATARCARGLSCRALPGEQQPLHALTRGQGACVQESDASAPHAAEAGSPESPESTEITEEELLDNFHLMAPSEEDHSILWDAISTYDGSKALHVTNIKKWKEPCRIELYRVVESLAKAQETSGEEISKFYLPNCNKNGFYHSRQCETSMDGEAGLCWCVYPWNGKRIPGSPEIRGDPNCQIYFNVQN
Chain of human IGF-I (human) (P05019 49-118): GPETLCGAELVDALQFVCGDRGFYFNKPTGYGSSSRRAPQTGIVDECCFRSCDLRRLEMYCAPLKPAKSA

What is called Kd is the concentration at which binding is half-saturated. Higher therefore signals weaker binding. A word on the koff: it is the rate constant with which the complex falls apart. A lower koff goes with slow dissociation. The term kon denotes the rate constant with which the complex forms. Consider “human IGFBP-1 (from UniProt P08833 26-259) (natural protein)”, for which, in the experiment with human IGF-II (human), the Kd worked out at 8.63 nM, the koff was determined as 0.000457 s⁻¹ and the kon turned out to be 53000 M⁻¹ s⁻¹.
In the experiment with human IGF-I (human), zebrafish IGFBP-1a (natural protein) gave an equilibrium dissociation constant (Kd) of 0.28 nM, a koff of 0.000332 s⁻¹ and a kon of 1.18e+06 M⁻¹ s⁻¹. In the experiment with human IGF-II (human), this substance gave a Kd of 0.34 nM, a koff of 0.00029 s⁻¹ and an association rate constant (kon) of 867000 M⁻¹ s⁻¹.
In the experiment with human IGF-II (human), “zebrafish IGFBP-1b (from UniProt A4K8J2 1-244) (natural protein)” gave a Kd of 9.33 nM, a koff of 0.00926 s⁻¹ and a kon of 993000 M⁻¹ s⁻¹.
